According to PMC11214414:
Read-outs that look alike come from different tables or passages of the source.

Legend:
Experiment in all cases: EMSA
HsASCC1 WT [1] = molecular target: T1, HsASCC1 WT (Homo sapiens, UniProt Q8N9N2-2)
HsASCC1 GDDG mutant = HsASCC1 GDDG mutant (Homo sapiens, UniProt Q8N9N2-2 1-357, K76D;R77D)
HsASCC1 WT [2] = molecular target: T1, HsASCC1 WT; remark: listed apart in the source

Binder | binding result (HsASCC1 WT [1]) | binding result (HsASCC1 GDDG mutant) | binding result (HsASCC1 WT [2])
TTTTCGCGTTTT (ssDNA) [CGCG DNA] | no binding | – | –
UUUUCGCGUUUU (ssRNA) [CGCG RNA] | – | no binding | binds
